According to IntAct's records for PubMed 24685146:

B1: Vinculin (Gallus gallus (Chicken)), P12003-1 (parent)
chain: MPVFHTRTIESILEPVAQQISHLVIMHEEGEVDGKAIPDLTAPVSAVQAAVSNLVRVGKETVQTTEDQILKRDMPPAFIKVENACTKLVRAAQMLQADPYSVPARDYLIDGSRGILSGTSDLLLTFDEAEVRKIIRVCKGILEYLTVAEVVETMEDLVTYTKNLGPGMTKMAKMIDERQQELTHQEHRVMLVNSMNTVKELLPVLISAMKIFVTTKNTKSQGIEEALKNRNFTVEKMSAEINEIIRVLQLTSWDEDAWASKDTEAMKRALALIDSKMNQAKGWLRDPNAPPGDAGEQAIRQILDEAGKAGELCAGKERREILGTCKTLGQMTDQLADLRARGQGATPMAMQKAQQVSQGLDLLTAKVENAARKLEAMTNSKQAIAKKIDAAQNWLADPNGGSEGEEHIRGIMSEARKVAELCEEPKERDDILRSLGEISALTAKLSDLRRHGKGDSPEARALAKQIATSLQNLQSKTNRAVANTRPVKAAVHLEGKIEQAQRWIDNPTVDDRGVGQAAIRGLVAEGRRLANVMMGPYRQDLLAKCDRVDQLAAQLADLAARGEGESPQARAIAAQLQDSLKDLKARMQEAMTQEVSDVFSDTTTPIKLLAVAATAPSDTPNREEVFEERAANFENHAARLGATAEKAAAVGTANKTTVEGIQATVKSARELTPQVVSAARILLRNPGNQAAYEHFETMKNQWIDNVEKMTGLVDEAIDTKSLLDASEEAIKKDLDKCKVAMANMQPQMLVAGATSIARRANRILLVAKREVENSEDPKFREAVKAASDELSKTISPMVMDAKAVAGNISDPGLQKSFLDSGYRILGAVAKVREAFQPQEPDFPPPPPDLEHLHLTDELAPPKPPLPEGEVPPPRPPPPEEKDEEFPEQKAGEAINQPMMMAARQLHDEARKWSSKGNDIIAAAKRMALLMAEMSRLVRGGSGNKRALIQCAKDIAKASDEVTRLAKEVAKQCTDKRIRTNLLQVCERIPTISTQLKILSTVKATMLGRTNISDEESEQATEMLVHNAQNLMQSVKETVREAEAASIKIRTDAGFTLRWVRKTPWYQ

Variants of: B1
Settings: with acts_rabit ACTA1, P68135

effect of a mutation on the interaction	Variant
decreasing interaction strength	V1001A
decreasing interaction strength	I997A
